Consider one molecule from paper PMC11870435 (2025).

The experiment concerns the target H3HK68 full length hemagglutinin WT trimer (A/Hong Kong/1/1968(H3N2)) (Influenza A virus A/Hong …, UniProt Q91MA7). In words: BLI.

Chain of H3HK68 full length hemagglutinin WT trimer (A/Hong Kong/1/1968(H3N2)) (Q91MA7 17-566, one chain of several): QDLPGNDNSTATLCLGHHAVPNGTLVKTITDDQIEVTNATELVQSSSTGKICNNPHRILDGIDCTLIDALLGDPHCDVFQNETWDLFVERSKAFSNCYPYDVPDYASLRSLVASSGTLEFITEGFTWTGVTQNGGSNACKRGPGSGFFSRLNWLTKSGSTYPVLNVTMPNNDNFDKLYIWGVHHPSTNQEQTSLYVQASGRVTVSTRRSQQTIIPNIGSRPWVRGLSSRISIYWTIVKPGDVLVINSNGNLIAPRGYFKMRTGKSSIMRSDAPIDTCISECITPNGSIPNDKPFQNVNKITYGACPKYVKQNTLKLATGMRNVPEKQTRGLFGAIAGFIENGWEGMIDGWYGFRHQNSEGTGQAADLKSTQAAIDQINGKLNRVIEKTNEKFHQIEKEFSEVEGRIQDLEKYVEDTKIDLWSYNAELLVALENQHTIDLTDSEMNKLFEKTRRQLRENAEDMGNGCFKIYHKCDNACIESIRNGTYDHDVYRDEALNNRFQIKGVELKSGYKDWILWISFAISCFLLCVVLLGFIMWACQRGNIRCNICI

B1: F045-92 IgG (H3 RBS-specific antibody) (antibody, V domains shown)
VH: EVQLVESGAEVKKPGSSVKVSCRASGTFYKYAINWVRQAPGQGLEWMGGIIPFFGTTNYAQKFQGRLTITADGSTNTAYMQLDSLRSEDTAVYYCAGPSITESHYCLDCAAKDYYYGLDVWGQGTTVTVSS
VL: not shown
As for B1, the dissociation constant (Kd) came out at 0.01 µM.
